Experimental data taken from patent US20080206264A1.
Bridge positions count the residues as written; N and C are the ends. Ends that are not written are not given here.

Target: 447-52D Fv fragment
Test: fluorescence quenching of 447Fv upon titration with the peptide

## CRKSIHCGPGRCFYTTGC (disulfide 1-18, 7-12) [R5A-M1 peptide (disulfide-constrained R5A mimic peptide 1)]
  Kd: 0.01 µM
